Data: patent publication EP4342988A1 (Eberhard Karls Universität Tübingen, Medizinische Fakultät, dated 2024)

Key:
[1] = target: 149 proteins which strongly interact with THAP1; assay: TAP-MS, anti-Flag pull-down of tagged THAP1 against empty vector, LC-MS/MS peak area ratios
[2] = target: T1, CTCF (CCCTC-binding factor / Transcriptional repressor CTCF) (UniProt P49711 1-727); assay: anti-Flag pull-down of tagged THAP1 from HEK-293 nuclear extract (TAP), Western blot
T1 sequence (looked up): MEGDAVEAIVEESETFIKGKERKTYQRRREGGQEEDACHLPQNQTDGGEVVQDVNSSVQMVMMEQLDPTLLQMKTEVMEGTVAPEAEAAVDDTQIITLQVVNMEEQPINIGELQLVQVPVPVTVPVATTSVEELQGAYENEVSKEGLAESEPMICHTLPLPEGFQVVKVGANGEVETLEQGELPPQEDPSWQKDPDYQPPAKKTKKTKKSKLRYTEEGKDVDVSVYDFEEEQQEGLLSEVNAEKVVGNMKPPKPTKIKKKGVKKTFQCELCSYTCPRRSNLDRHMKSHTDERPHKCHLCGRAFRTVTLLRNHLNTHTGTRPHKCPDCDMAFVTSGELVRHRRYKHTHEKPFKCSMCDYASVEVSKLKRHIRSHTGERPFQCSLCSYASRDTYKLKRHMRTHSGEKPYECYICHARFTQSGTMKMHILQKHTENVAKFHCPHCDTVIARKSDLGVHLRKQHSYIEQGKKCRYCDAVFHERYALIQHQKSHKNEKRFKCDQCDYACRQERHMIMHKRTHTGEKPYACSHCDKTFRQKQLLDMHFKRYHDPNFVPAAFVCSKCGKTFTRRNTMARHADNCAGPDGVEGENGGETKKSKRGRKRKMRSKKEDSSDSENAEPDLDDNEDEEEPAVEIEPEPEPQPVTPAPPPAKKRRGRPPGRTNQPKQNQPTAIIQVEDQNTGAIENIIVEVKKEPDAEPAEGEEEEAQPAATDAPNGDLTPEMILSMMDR

- log2 (TAP-MS ratio) [1]: 15 log2
- binding result [2]: binds
B1: Strep/FLAG tagged THAP1 protein (other, human, UniProt Q9NVV9 1-213, looked up)
chain: MVQSCSAYGCKNRYDKDKPVSFHKFPLTRPSLCKEWEAAVRRKNFKPTKYSSICSEHFTPDCFKRECNNKLLKENAVPTIFLCTEPHDKKEDLLEPQEQLPPPPLPPPVSQVDAAIGLLMPPLQTPVNLSVFCDHNYTVEDTMHQRKRIHQLEQQVEKLRKKLKTAQQRCRRQERQLEKLKEVVHFQKEKDDVSERGYVILPNDYFEIVEVPA
notes: Bait of the TAP-MS pull-down from nuclear extract of HEK-293 cells on anti-Flag M2 agarose, with benzonase added; also called wild-type THAP1; hTHAP1; not shown: Strep/FLAG tag
